Measurements: patent US8299032B2, “Self-assembling peptide and gel produced from the same” (Menicon Co., Ltd., priority 2005, dated 2012)

Columns and labels:
Assay type in all cases: physicochemical
[1] = Confirmation of beta-sheet structure formation by circular dichroism measurement; conditions: 3×10^−3 M peptide in 0.1 M Tris-HCl (pH 7.5)
Procedure: The formation of each of the beta (β)-sheet structures of Peptide Nos. 1 to 9 and 12 synthesized in Production Examples 1 and 2 mentioned above was confirmed in accordance with circular dichroism measurement method. Concretely, each of the peptides was dissolved in 0.1 M Tris-HCl (pH 7.5) to prepare a 3×10^−3 M peptide solution. The resulting peptide solution was filled into a quartz cell having an optical path length of 0.5 mm (manufactured by JASCO, trade name: 110J cylindrical cell, volume: 0.04 mL), and the quartz cell was set in trade name J-820K Spectropolarimeter (manufactured by JASCO), and the molar ellipticities at 195 to 260 nm for the peptide solutions were determined in accordance with the circular dichroism measurement method.

[2] = Visible light transmittance of peptide gel (380 to 780 nm); conditions: for Visible Light Transmittance (average, 380 to 780 nm): gel of 0.5% by weight peptide in 0.1 M Tris-HCl (pH 7.5), optical path length 10 mm; for decreasing ratio of visible light transmittance: after 2 months at room temperature versus before storage; for visible light transmittance (average) after standing: gel allowed to stand at room temperature for 2 months; for long-term stability of gel (no white turbidity): room temperature, 2 months
Source text: In a case where the gel of the present invention is used, for example, as a scaffold for a three-dimensional culture of the cells, it is desired that the used concentration of the self-assembling peptide of the present invention upon gel formation in a medium for cell culture is preferably 0.3% by weight or more, and more preferably 0.5% by weight or more, from the viewpoint of easiness in gel formation, and that the used concentration of the peptide is preferably 5% by weight or less, and more preferably 2% by weight or less, from the viewpoint of easy miscibility with the cells. In addition, in such a case, it is preferable that the gel is transparent, from the viewpoint of easiness in cell observation with a fluorescent microscope or the like. For example, in a gel containing 0.5% by weight of a self-assembling peptide, it is desired that the visible light transmittance which is determined in terms of absorbance at 380 to 780 nm in a cell having an optical path of 10 mm is at least 50%/cm, and it is desired that the visible light transmittance is preferably 70%/cm or more, and more preferably 90% 1 cm or more. Further, it is desired that the visible light transmittance of the gel after allowing it to stand at room temperature for a long period of time, for example, 2 months, is preferably 50%/cm or more, more preferably 70%/cm or more, and even more preferably 90%/cm or more, from the viewpoint of long-term stability of the gel, and that the decreasing ratio (%) of the visible light transmittance (100−(visible light transmittance after storage/visible light transmittance before storage×100)) is preferably 30% or less, more preferably 20% or less, and even more preferably 10% or less. The transparency of the gel can be determined with UV/VIS measurement apparatus as described in Examples set forth below.
Peptide Nos. 1 to 9 synthesized in Production Examples 1 and 2 were dissolved in 0.1 M Tris-HCl (pH 7.5), to prepare a gel composed of a 0.5% by weight peptide solution. The visible light transmittance of the prepared gel within the range of from 380 to 780 nm was determined using a cell having an optical path length of 10 mm and trade name V-550 UV/VIS Spectrometer (manufactured by JASCO).
Therefore, it could be seen that each of Peptide Nos. 1 to 9 mentioned above formed a transparent gel. In addition, of the above gels, the gel comprising each of Peptide Nos. 1, 4, 6, or 7 was allowed to stand at room temperature for 2 months, and the visible light transmittance was determined in the same manner as above. As a result, an average thereof was respectively 88, 87, 91, or 93%/cm, and the decreasing ratio was respectively 9.3, 5.4, 6.2, or 4.1%. In other words, the gel after 2 months passed from the preparation also maintained high visible light transmittance.

[3] = Gel formation, test tube placed up-side-down; set-up: key to Gel Formation: Excellent: those in which the contents did not drop off were evaluated as the gel formation being “excellent”; Poor: those in which the contents dropped off were evaluated as being “poor.”; conditions: 37° C. for 24 hours; for Gel Formation: peptide 0.5% by weight; for gel formation in neutral aqueous solution (summary of Table 11): neutral aqueous solutions, 0.5% by weight
Procedure: Peptide Nos. 1, 2, 4, 5, 6, 10 and 11 synthesized in Production Examples 1 and 2 were dissolved in each of aqueous solutions listed in Table 11. A 1.5 mL test tube was charged with 1 mL of the resulting peptide-containing aqueous solution. Next, the test tube was allowed to stand at 37° C. for 24 hours.

[4] = Dynamic viscoelasticity of peptide aqueous solution (storage modulus G′, loss modulus G″); conditions: 0.5 wt %, acidic aqueous solution (pH 3.5)
Source text: In addition, the term “gel” as used herein refers to a viscoelastic substance having both viscous property and elastic property. Concretely, the gel refers to a substance satisfying the formula G′>G″, in a case where the gel is subjected to dynamic viscoelasticity measurement to determine a storage elastic modulus G′ and a loss elastic modulus G″.
The dynamic viscoelasticity can be determined with a dynamic viscoelasticity measurement apparatus as described in Examples set forth below. Concretely, the dynamic viscoelasticity can be determined by placing a sample on an iron plate, compressing the sample with an iron cone, and monitoring a stress applied to a motor rotating the iron cone when the cone is rotated.
The storage elastic modulus G′ and the loss elastic modulus G″ of a 0.5% by weight peptide (Peptide Nos. 1 to 10 mentioned above)-containing aqueous solution were determined with an instrument under the trade name of AR1000 (manufactured by TA Instruments Japan). […] Next, the 0.5% by weight peptide-containing aqueous solution was compressed, and a stress applied to a motor was monitored when the iron cone was rotated, while varying the frequency of the cone within the range of 0.1 to 10 rad/sec.

Sequence | Visible Light Transmittance (average, 380 to 780 nm) [2] [%] | Gel Formation ([3]; PBS pH 7.4) | gel formation in neutral aqueous solution (summary of Table 11) [3] | Gel Formation ([3]; Tris-HCl 0.1 M pH 7.5) | decreasing ratio of visible light transmittance [2] [%] | visible light transmittance (average) after standing [2] [%/cm] | long-term stability of gel (no white turbidity) [2] | further results
HKHQHDHKHQHDHKHQHD (Synthetic peptide which is not a peptide of the invention) [Peptide No. 12, peptide not having a nonpolar amino acid residue, not a peptide of the present invention] |  |  |  |  |  |  |  | formation of beta (β)-sheet structure in aqueous solution [1]: did not form a beta(β)-sheet structure
KASAKAEAKASAKAEA (Synthetic self-assembling peptide of the invention) [Peptide No. 8, self-assembling peptide of the present invention] | 94 |  |  |  |  |  |  | 
RAAARADARAAARADA (Synthetic self-assembling peptide of the invention) [Peptide No. 3, self-assembling peptide of the present invention] | 91 |  |  |  |  |  |  | 
RADARADARADARADA [Peptide No. 10, reference compound] |  | Poor | did not form into gel in a neutral aqueous solution |  |  |  |  | gel formation by dynamic viscoelasticity [4]: formed the gel in an acidic aqueous solution
RADARASARASARADA (Synthetic self-assembling peptide of the invention) [Peptide No. 5, self-assembling peptide of the present invention] | 78 |  | formed into gel in various neutral aqueous solutions | Excellent |  |  |  | 
RANARADARANARADA (Synthetic self-assembling peptide of the invention) [Peptide No. 2, self-assembling peptide of the present invention] | 77 |  | formed into gel in various neutral aqueous solutions | Excellent |  |  |  | 
RASARADARADARASA (Synthetic self-assembling peptide of the invention) [Peptide No. 4, self-assembling peptide of the present invention] | 92 | Excellent | formed into gel in various neutral aqueous solutions | Excellent | 5.4 | 87 | stable for a long period of time without becoming white turbid | Gel Formation ([3]; Tris-HCl 0.05 M pH 7.5): Excellent; Gel Formation ([3]; Tris-HCl 0.2 M pH 7.5): Excellent; Gel Formation ([3]; Tris-HCl 0.4 M pH 7.5): Excellent; Gel Formation ([3]; Tris-HCl 0.6 M pH 7.5): Excellent; Gel Formation ([3]; Tris-HCl 0.8 M pH 7.5): Excellent; Gel Formation ([3]; Tris-HCl 1 M pH 7.5): Excellent
RASARADARASA (Synthetic self-assembling peptide of the invention) [Peptide No. 7, self-assembling peptide of the present invention] | 97 |  |  |  | 4.1 | 93 | stable for a long period of time without becoming white turbid | 
RASARADARASARADA (Synthetic self-assembling peptide of the invention) [Peptide No. 1, self-assembling peptide of the present invention] | 97 | Excellent | formed into gel in various neutral aqueous solutions | Excellent | 9.3 | 88 | stable for a long period of time without becoming white turbid | Gel Formation ([3]; D-MEM/F12(1:1) Medium pH 7.5): Excellent; Gel Formation ([3]; Tris-HCl 0.05 M pH 7.5): Excellent; Gel Formation ([3]; Tris-HCl 0.2 M pH 7.5): Excellent; Gel Formation ([3]; Tris-HCl 0.4 M pH 7.5): Excellent; Gel Formation ([3]; Tris-HCl 0.6 M pH 7.5): Excellent; Gel Formation ([3]; Tris-HCl 0.8 M pH 7.5): Excellent; Gel Formation ([3]; Tris-HCl 1 M pH 7.5): Excellent
RASARASARASARADA (Synthetic self-assembling peptide of the invention) [Peptide No. 6, self-assembling peptide of the present invention] | 97 |  | formed into gel in various neutral aqueous solutions | Excellent | 6.2 | 91 | stable for a long period of time without becoming white turbid | 
RFDFRFDFRFDFRFDF (Synthetic peptide which is not a peptide of the invention) [compound 11, comparative peptide, which is not self-assembling peptide of the present invention; charge at pH 7.0 is 0, reference compound] |  | Poor | did not form into gel in a neutral aqueous solution |  |  |  |  | 
SAEAKAEASAEAKAEA (Synthetic self-assembling peptide of the invention) [Peptide No. 9, self-assembling peptide of the present invention] | 93 |  |  |  |  |  |  | 
